Data on two sequences can be found in patent US20230104113.

The subject of this data set is NF-kB (human). Nature of the data set: cell_activity. Particulars: lipid transfection of 1 pmol.

On to “AAAAAAAAAAGAUCUUGAAACUGUUUUAAGGUUGGCCGAUCUUAAAAAA [NF-kB aptamer circular RNA]”, for which the activity (A549 MTT day 2 (89% day 1), with doxorubicin 79% day 1, 73% day 2) came out at 86 % viability. For “AAAAAAAAAAGAUCUUGAAACUGUUUUAAGGUUGGCCGAUCUUAAAAAA [NF-kB aptamer linear RNA]”, the activity (5' monophosphate, A549 MTT day 2 (101% day 1), with doxorubicin 78% day 2) came to 97 % viability.
